Assay results published in US20170015742A1 (published 2017).

Experiments:
[1] = biological target: recombinant human VEGF165 (human, UniProt P15692 207-395); assay: cell-based or functional assay
[2] = biological target: recombinant human PDGF-BB (human, UniProt P01127 82-190); assay: cell-based or functional assay
Chain of recombinant human PDGF-BB (P01127 82-190 limits assumed): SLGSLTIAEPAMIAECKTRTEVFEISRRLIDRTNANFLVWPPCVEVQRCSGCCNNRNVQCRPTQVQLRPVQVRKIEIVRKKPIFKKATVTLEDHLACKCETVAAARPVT

Chain of recombinant human VEGF165 (P15692 other isoform, or with tags, fused parts or gaps limits assumed): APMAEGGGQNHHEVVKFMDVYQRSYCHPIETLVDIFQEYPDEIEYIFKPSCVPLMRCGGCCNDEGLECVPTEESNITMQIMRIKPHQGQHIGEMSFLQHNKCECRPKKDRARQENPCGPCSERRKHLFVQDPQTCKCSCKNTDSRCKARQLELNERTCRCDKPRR

Binder | Potency IC50 (nM) HMVEC-d hVEGF165 [1] | Potency IC50 (nM) NIH-3T3 hPDGF-BB [2]
4G8.12-GS10-9E8.4 (bispecific antibody, human IgG1, kappa, L234A L235A) heavy: not shown light: DTVLTQSPATLSLSPGERATLSCRASESVSTHMHWYQQKPGQAPRLLIYGASNLESGVPARFSGSGSGTDFTLTISSLEPEDFAVYFCQQSWNDPFTFGQGTKLEIKRGGSGGGGSGEFVLTQSPGTLSLSPGERATLSCERSSGDIGDSYVSWYQQKPGQAPRLVIYADDQRPSGIPDRFSGSGSGTDFTLTISRLEPEDFAVYYCQSYDINIDIVFGGGTKVEIKRTVAAPSVFIFPPSDEQLKSGTASVVCLLNNFYPREAKVQWKVDNALQSGNSQESVTEQDSKDSTYSLSSTLTLSKADYEKHKVYACEVTHQGLSSPVTKSFNRGEC | 0.079 nM | 0.227 nM
4G8.13-GS10-9E8.4 (bispecific antibody, human IgG1, kappa, L234A L235A) heavy: not shown light: ETVLTQSPATLSVSPGERATLSCRASESVSTHMHWYQQKPGQAPRLLIYGASNLESGVPARFSGSGSGTDFTLTISSLQSEDFAVYFCQQSWNDPFTFGQGTRLEIKRGGSGGGGSGEFVLTQSPGTLSLSPGERATLSCERSSGDIGDSYVSWYQQKPGQAPRLVIYADDQRPSGIPDRFSGSGSGTDFTLTISRLEPEDFAVYYCQSYDINIDIVFGGGTKVEIKRTVAAPSVFIFPPSDEQLKSGTASVVCLLNNFYPREAKVQWKVDNALQSGNSQESVTEQDSKDSTYSLSSTLTLSKADYEKHKVYACEVTHQGLSSPVTKSFNRGEC | 0.907 nM | 0.255 nM
4G8.14-GS10-9E8.4 (bispecific antibody, human IgG1, kappa, L234A L235A) heavy: not shown light: DTVLTQSPSTLSASPGERATISCRASESVSTHMHWYQQKPGQAPKLLIYGASNLESGVPSRFSGSRSGTDFTLTISSLQPEDFAVYFCQQSWNDPFTFGQGTKVEIKRGGSGGGGSGEFVLTQSPGTLSLSPGERATLSCERSSGDIGDSYVSWYQQKPGQAPRLVIYADDQRPSGIPDRFSGSGSGTDFTLTISRLEPEDFAVYYCQSYDINIDIVFGGGTKVEIKRTVAAPSVFIFPPSDEQLKSGTASVVCLLNNFYPREAKVQWKVDNALQSGNSQESVTEQDSKDSTYSLSSTLTLSKADYEKHKVYACEVTHQGLSSPVTKSFNRGEC | 0.113 nM | 0.459 nM
4G8.5_GS_CL-33675 (bispecific antibody, human IgG1, kappa, L234A L235A) heavy: EIQLVQSGSELKKPGASVKVSCKASGYTFTNYGMYWVRQAPGQGLEYMGWINTETGKPTYADDFKGRFVFSLDTSVSTAYLQISSLKAEDTAVYFCARTNYYYRSYIFYFDYWGQGTMVTVSSGGGGSGGGGSEVTLRESGPALVKPTQTLTLTCTFSGFSLSTYGMGVGWIRQPPGKALEWLANIWWDDDKYYNPSLKNRLTISKDTSKNQVVLTMTNMDPVDTATYYCARIESSGPKYSFDYWGQGTMVTVSSASTKGPSVFPLAPSSKSTSGGTAALGCLVKDYFPEPVTVSWNSGALTSGVHTFPAVLQSSGLYSLSSVVTVPSSSLGTQTYICNVNHKPSNTKVDKKVEPKSCDKTHTCPPCPAPEAAGGPSVFLFPPKPKDTLMISRTPEVTCVVVDVSHEDPEVKFNWYVDGVEVHNAKTKPREEQYNSTYRVVSVLTVLHQDWLNGKEYKCKVSNKALPAPIEKTISKAKGQPREPQVYTLPPSREEMTKNQVSLTCLVKGFYPSDIAVEWESNGQPENNYKTTPPVLDSDGSFFLYSKLTVDKSRWQQGNVFSCSVMHEALHNAYTQKSLSLSPGK light: ATQLTQSPSLSASVGDRVTITCRASESVSTHMHWYQQKPGKQPKLLIYGASNLESGVPSRFSGSGSGTDFTLTISSLQPEDFATYFCQQSWNDPFTFGQGTKLEIKGGSGGGGSGGEIVLTQSPGTLSLSPGERATLSCRASSGSIWYSFVSWYQQKPGQAPRLLIYADDQRASGIPDRFSGSGSGTDFTLTISRLEPEDFAVYYCQSYGINIDVVFGGGTKVEIKRTVAAPSVFIFPPSDEQLKSGTASVVCLLNNFYPREAKVQWKVDNALQSGNSQESVTEQDSKDSTYSLSSTLTLSKADYEKHKVYACEVTHQGLSSPVTKSFNRGEC | 0.076 nM | 0.05 nM
9E10.1_GS_3E2.1 (bispecific antibody, human IgG1, kappa, L234A L235A) heavy: EIQLVQSGSELKKPGASVKVSCKASGYTFTNYGMYWVKQAPGQGLEYMGWIDTETGRPTYADDFKGRFVFSLDTSVSTAYLQISSLKAEDTAVYFCARWSGDTTGIRGPWFAYWGQGTLVTVSSGGGGSGGGGSEVQLVQSGAEVKKPGSSVKVSCKASGYTFTESYMYWVKQAPGQGLELIGRIDPEDGSTDYVEKFKNKATLTADKSTSTAYMELSSLRSEDTAVYFCARFGARSYFYPMDAWGQGTTVTVSSASTKGPSVFPLAPSSKSTSGGTAALGCLVKDYFPEPVTVSWNSGALTSGVHTFPAVLQSSGLYSLSSVVTVPSSSLGTQTYICNVNHKPSNTKVDKKVEPKSCDKTHTCPPCPAPEAAGGPSVFLFPPKPKDTLMISRTPEVTCVVVDVSHEDPEVKFNWYVDGVEVHNAKTKPREEQYNSTYRVVSVLTVLHQDWLNGKEYKCKVSNKALPAPIEKTISKAKGQPREPQVYTLPPSREEMTKNQVSLTCLVKGFYPSDIAVEWESNGQPENNYKTTPPVLDSDGSFFLYSKLTVDKSRWQQGNVFSCSVMHEALHNAYTQKSLSLSPGK light: DIRMTQSPSSLSASVGDRVTIECLASEDIYSDLAWYQQKPGKSPKLLIYNANGLQNGVPSRFSGSGSGTDYSLTISSLQPEDVATYFCQQYNYFPGTFGQGTKLEIKGGSGGGGSGGETVLTQSPATLSLSPGERATLSCRASESVSTLMHWYQQKPGQQPRLLIYGASNLESGVPARFSGSGSGTDFTLTISSLEPEDFAVYFCQQSWNDPWTFGGGTKVEIKRTVAAPSVFIFPPSDEQLKSGTASVVCLLNNFYPREAKVQWKVDNALQSGNSQESVTEQDSKDSTYSLSSTLTLSKADYEKHKVYACEVTHQGLSSPVTKSFNRGEC | 0.054 nM | 5.72 nM
9E10.6_GS_3E2.1 (bispecific antibody, human IgG1, kappa, L234A L235A) heavy: EVQLVQSGAEVKKPGSSVKVSCKASGYTFTNYGMYWVRQAPGQGLEWMGWIDTETGRPTYADDFKGRFTFTADKSTSTAYMELSSLRSEDTAVYYCARWSGDTTGIRGPWFAYWGQGTLVTVSSGGGGSGGGGSEVQLVQSGAEVKKPGSSVKVSCKASGYTFTESYMYWVKQAPGQGLELIGRIDPEDGSTDYVEKFKNKATLTADKSTSTAYMELSSLRSEDTAVYFCARFGARSYFYPMDAWGQGTTVTVSSASTKGPSVFPLAPSSKSTSGGTAALGCLVKDYFPEPVTVSWNSGALTSGVHTFPAVLQSSGLYSLSSVVTVPSSSLGTQTYICNVNHKPSNTKVDKKVEPKSCDKTHTCPPCPAPEAAGGPSVFLFPPKPKDTLMISRTPEVTCVVVDVSHEDPEVKFNWYVDGVEVHNAKTKPREEQYNSTYRVVSVLTVLHQDWLNGKEYKCKVSNKALPAPIEKTISKAKGQPREPQVYTLPPSREEMTKNQVSLTCLVKGFYPSDIAVEWESNGQPENNYKTTPPVLDSDGSFFLYSKLTVDKSRWQQGNVFSCSVMHEALHNAYTQKSLSLSPGK light: DIRMTQSPSSLSASVGDRVTITCLASEDIYSDLAWYQQKPGKSPKLLIYNANGLQNGVPSRFSGSGSGTDYTLTISSLQPEDVATYFCQQYNYFPGTFGQGTKLEIKGGSGGGGSGGETVLTQSPATLSLSPGERATLSCRASESVSTLMHWYQQKPGQQPRLLIYGASNLESGVPARFSGSGSGTDFTLTISSLEPEDFAVYFCQQSWNDPWTFGGGTKVEIKRTVAAPSVFIFPPSDEQLKSGTASVVCLLNNFYPREAKVQWKVDNALQSGNSQESVTEQDSKDSTYSLSSTLTLSKADYEKHKVYACEVTHQGLSSPVTKSFNRGEC | 0.06 nM | 1.32 nM
4G8.5-GS10-9E8.4 (bispecific antibody, human IgG1, kappa, L234A L235A) heavy: not shown light: ATQLTQSPSLSASVGDRVTITCRASESVSTHMHWYQQKPGKQPKLLIYGASNLESGVPSRFSGSGSGTDFTLTISSLQPEDFATYFCQQSWNDPFTFGQGTKLEIKRGGSGGGGSGEFVLTQSPGTLSLSPGERATLSCERSSGDIGDSYVSWYQQKPGQAPRLVIYADDQRPSGIPDRFSGSGSGTDFTLTISRLEPEDFAVYYCQSYDINIDIVFGGGTKVEIKRTVAAPSVFIFPPSDEQLKSGTASVVCLLNNFYPREAKVQWKVDNALQSGNSQESVTEQDSKDSTYSLSSTLTLSKADYEKHKVYACEVTHQGLSSPVTKSFNRGEC | 0.079 nM | > 5 nM
4G8.5_GS_3E2.1 (bispecific antibody, human IgG1, kappa, L234A L235A) heavy: EIQLVQSGSELKKPGASVKVSCKASGYTFTNYGMYWVRQAPGQGLEYMGWINTETGKPTYADDFKGRFVFSLDTSVSTAYLQISSLKAEDTAVYFCARTNYYYRSYIFYFDYWGQGTMVTVSSGGGGSGGGGSEVQLVQSGAEVKKPGSSVKVSCKASGYTFTESYMYWVKQAPGQGLELIGRIDPEDGSTDYVEKFKNKATLTADKSTSTAYMELSSLRSEDTAVYFCARFGARSYFYPMDAWGQGTTVTVSSASTKGPSVFPLAPSSKSTSGGTAALGCLVKDYFPEPVTVSWNSGALTSGVHTFPAVLQSSGLYSLSSVVTVPSSSLGTQTYICNVNHKPSNTKVDKKVEPKSCDKTHTCPPCPAPEAAGGPSVFLFPPKPKDTLMISRTPEVTCVVVDVSHEDPEVKFNWYVDGVEVHNAKTKPREEQYNSTYRVVSVLTVLHQDWLNGKEYKCKVSNKALPAPIEKTISKAKGQPREPQVYTLPPSREEMTKNQVSLTCLVKGFYPSDIAVEWESNGQPENNYKTTPPVLDSDGSFFLYSKLTVDKSRWQQGNVFSCSVMHEALHNAYTQKSLSLSPGK light: ATQLTQSPSLSASVGDRVTITCRASESVSTHMHWYQQKPGKQPKLLIYGASNLESGVPSRFSGSGSGTDFTLTISSLQPEDFATYFCQQSWNDPFTFGQGTKLEIKGGSGGGGSGGETVLTQSPATLSLSPGERATLSCRASESVSTLMHWYQQKPGQQPRLLIYGASNLESGVPARFSGSGSGTDFTLTISSLEPEDFAVYFCQQSWNDPWTFGGGTKVEIKRTVAAPSVFIFPPSDEQLKSGTASVVCLLNNFYPREAKVQWKVDNALQSGNSQESVTEQDSKDSTYSLSSTLTLSKADYEKHKVYACEVTHQGLSSPVTKSFNRGEC | 0.072 nM | 1.4 nM
4G8.4-GS10-9E8.4 (bispecific antibody, human IgG1, kappa, L234A L235A) heavy: not shown light: AIQLTQSPSSLSASVGDRVTITCRASESVSTHMHWYQQKPGKAPKLLIYGASNLESGVPSRFSGSGSGTDFTLTISSLQPEDFATYYCQQSWNDPFTFGQGTKLEIKRGGSGGGGSGEFVLTQSPGTLSLSPGERATLSCERSSGDIGDSYVSWYQQKPGQAPRLVIYADDQRPSGIPDRFSGSGSGTDFTLTISRLEPEDFAVYYCQSYDINIDIVFGGGTKVEIKRTVAAPSVFIFPPSDEQLKSGTASVVCLLNNFYPREAKVQWKVDNALQSGNSQESVTEQDSKDSTYSLSSTLTLSKADYEKHKVYACEVTHQGLSSPVTKSFNRGEC | 0.281 nM | 1.33 nM
